Experimental data: PMC6287947
Blank lines part the entries; values can stand above or below the molecule they belong to.

Columns and labels:
taxol-stabilized MTs [1] = assay: co-sedimentation; 6His-Prp31 (10 nM) or 6His-Sf3A2 (13 nM) with increasing amounts of taxol-stabilized MTs (0.25–2 μM of tubulin dimers in MT polymers), 25 mM NaCl, RT 30 min, 100,000 g 40 min; SDS-PAGE and Coomassie staining; three independent experiments
taxol-stabilized MTs [2] = assay: co-sedimentation; 6His-Prp31 (10 nM) or 6His-Sf3A2 (13 nM) incubated at RT for 30 min with 2 μM taxol-stabilized MTs (or 2 μM tubulin without Taxol), centrifuged at 100,000 g at RT for 40 min; supernatants and pellets by Western blotting

- percent co-sedimented with MTs (taxol-stabilized MTs [1]): > 80%
- percent co-sedimented with MTs (taxol-stabilized MTs [2]): > 80%
Molecule: 6His-Sf3A2 (from UniProt Q9VU15 1-264) (natural protein)

- percent co-sedimented with MTs (taxol-stabilized MTs [1]): > 80%
- percent co-sedimented with MTs (taxol-stabilized MTs [2]): > 80%
B1: 6His-Prp31 (natural protein)
chain: MSLADELLADLEEDNDNELEEEDSEMASAEDESLLAEKLAKPAPNLMDVDVTVQSVRELCKLRDSERLKNTLQQIEHYASRQRTAAEMLGSVESDPEYCLIVDANAIAVDIDNEISIVHKFTKEKYQKRFPELDSLIVGEIEYLLAVKELGNDLDQVKNNEKLQAILTQATIMIVSVTASTTQGTMLTPAEKAKIDEACEMAIELNNFKSKIYEYVESRMTFIAPNLSMIVGASTAAKLLGIAGGLSKLSKMPACNVQVLGAQKKTLSGFSQTQMLPHTGYVYYSQIVQDTAPDLRRKAARLVAAKSVLAARVDACHESVHGEIGLRFKEDVEKKLDKLQEPPPVKFIKPLPKPIEGSKKKRGGKRVRKMKERYALTEFRKQANRMNFGDIEEDAYQGDLGYSRGTIGKTGTGRIRLPQVDEKTKVRISKTLHKNLQKQQVYGGNTTVKRQISGTASSVAFTPLQGLEIVNPQAAERSQTEANAKYFSNTSGFMSVGQRTT
